Reference: the supplement of paper PMC9112550, “Optimization of the antimicrobial peptide Bac7 by deep mutational scanning” (BMC Biology, 2022)

tested on: Escherichia coli TOP10; experiment: shrunken log2 fold change of peptide-encoding DNA abundance (4.5 h post-induction vs induction); higher = less antimicrobial activity (less host growth inhibition); settings: time post-induction: 4.5 h; library: site-saturation at positions 5, 18, 19, 20
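Also: peptides expressed intracellularly from a pBAD plasmid library in pooled LB shake-flask culture, induced with 0.3% L-arabinose, DNA abundance read by NGS, three biological replicates, DESeq2 with apeglm shrinkage.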

| Sequence | shrunken log2 fold change |
| --- | --- |
| RRIRARPPRLPRPRPRPKVMPRP | 0.176 |
| RRIRWRPPRLPRPRPRPGKKPRP | 0.375 |
| RRIRFRPPRLPRPRPRPVRPPRP | 1.18 |
| RRIRWRPPRLPRPRPRPGNRPRP | -0.00977 |
| RRIRRRPPRLPRPRPRPWRVPRP | 0.277 |
| RRIRERPPRLPRPRPRPDCMPRP | -0.255 |
| RRIRMRPPRLPRPRPRPIYWPRP | -0.0918 |
| RRIRARPPRLPRPRPRPDLPPRP | 0.311 |
| RRIRRRPPRLPRPRPRPYSVPRP | 0.0601 |
| RRIRMRPPRLPRPRPRPCQGPRP | -0.168 |
| RRIRWRPPRLPRPRPRPYWFPRP | -0.0484 |
| RRIRTRPPRLPRPRPRPMTIPRP | -0.137 |
| RRIRARPPRLPRPRPRPWAAPRP | 0.239 |
| RRIRPRPPRLPRPRPRPSANPRP | -0.00762 |
| RRIRVRPPRLPRPRPRPHSHPRP | -0.348 |
| RRIRLRPPRLPRPRPRPFKTPRP | -0.501 |
| RRIRLRPPRLPRPRPRPFGGPRP | -0.334 |
| RRIRDRPPRLPRPRPRPTNFPRP | -0.208 |
| RRIRNRPPRLPRPRPRPWIIPRP | -0.429 |
| RRIRRRPPRLPRPRPRPGQSPRP | 0.155 |
| RRIRTRPPRLPRPRPRPGQCPRP | 0.013 |
| RRIRCRPPRLPRPRPRPCNQPRP | -0.412 |
| RRIRQRPPRLPRPRPRPWADPRP | 0.00911 |
| RRIRMRPPRLPRPRPRPVCHPRP | 0.224 |
| RRIRTRPPRLPRPRPRPLIFPRP | -0.446 |

| Sequence | shrunken log2 fold change |
| --- | --- |
| RRIRQRPPRLPRPRPRPHHYPRP | -0.617 |
| RRIRFRPPRLPRPRPRPKKCPRP | 0.107 |
| RRIRDRPPRLPRPRPRPYRRPRP | -0.0062 |
| RRIRFRPPRLPRPRPRPQWGPRP | -0.139 |
| RRIRMRPPRLPRPRPRPWMLPRP | 0.367 |
| RRIRKRPPRLPRPRPRPICFPRP | 0.272 |
| RRIRQRPPRLPRPRPRPMTVPRP | -0.00149 |
| RRIRERPPRLPRPRPRPNMPPRP | -0.706 |
| RRIRVRPPRLPRPRPRPWGPPRP | -0.164 |
| RRIRIRPPRLPRPRPRPKDFPRP | -0.457 |
| RRIRGRPPRLPRPRPRPNAPPRP | 0.938 |
| RRIRFRPPRLPRPRPRPDDPPRP | 0.212 |
| RRIRQRPPRLPRPRPRPIMEPRP | -0.0496 |
| RRIRHRPPRLPRPRPRPKKKPRP | -0.0281 |
| RRIRSRPPRLPRPRPRPRGRPRP | 0.375 |
| RRIRWRPPRLPRPRPRPRLSPRP | 0.154 |
| RRIRTRPPRLPRPRPRPQEHPRP | -0.0662 |
| RRIRCRPPRLPRPRPRPHMQPRP | -0.322 |
| RRIRLRPPRLPRPRPRPKQFPRP | 0.0426 |
| RRIRVRPPRLPRPRPRPYKPPRP | -0.757 |
| RRIRDRPPRLPRPRPRPMQSPRP | 3.94 |
| RRIRCRPPRLPRPRPRPEQNPRP | 0.268 |
| RRIRTRPPRLPRPRPRPHGMPRP | -0.157 |
| RRIRNRPPRLPRPRPRPEDKPRP | 0.114 |
| RRIRLRPPRLPRPRPRPIRQPRP | -0.0246 |

| Sequence | shrunken log2 fold change |
| --- | --- |
| RRIRFRPPRLPRPRPRPDLMPRP | -0.114 |
| RRIRQRPPRLPRPRPRPQTGPRP | -0.137 |
| RRIRQRPPRLPRPRPRPPPSPRP | 0.731 |
| RRIRQRPPRLPRPRPRPSSTPRP | -0.215 |
| RRIRNRPPRLPRPRPRPTMQPRP | 0.0135 |
| RRIRWRPPRLPRPRPRPGHLPRP | 0.0651 |
| RRIRRRPPRLPRPRPRPMSSPRP | -0.00615 |
| RRIRHRPPRLPRPRPRPPHKPRP | 0.0336 |
| RRIRTRPPRLPRPRPRPHRGPRP | -0.154 |
| RRIRCRPPRLPRPRPRPVLIPRP | -0.414 |
| RRIRIRPPRLPRPRPRPAKIPRP | -0.176 |
| RRIRLRPPRLPRPRPRPMCPPRP | 0.128 |
| RRIRQRPPRLPRPRPRPEFGPRP | -0.0374 |
| RRIRIRPPRLPRPRPRPPWGPRP | 0.0517 |
| RRIRSRPPRLPRPRPRPQRLPRP | -0.187 |
| RRIRKRPPRLPRPRPRPTCAPRP | 0.786 |
| RRIRVRPPRLPRPRPRPFAAPRP | 0.15 |
| RRIRIRPPRLPRPRPRPDPWPRP | 0.0621 |
| RRIRRRPPRLPRPRPRPLATPRP | 0.882 |
| RRIRCRPPRLPRPRPRPNNIPRP | -0.843 |
| RRIRYRPPRLPRPRPRPNKPPRP | -0.18 |
| RRIRRRPPRLPRPRPRPTFQPRP | 0.204 |
| RRIRNRPPRLPRPRPRPEYTPRP | -0.0431 |
| RRIRRRPPRLPRPRPRPSYHPRP | -0.368 |
| RRIRARPPRLPRPRPRPAYAPRP | 0.476 |

| Sequence | shrunken log2 fold change |
| --- | --- |
| RRIRPRPPRLPRPRPRPGDIPRP | -0.027 |
| RRIRKRPPRLPRPRPRPYHEPRP | -0.112 |
| RRIRRRPPRLPRPRPRPIASPRP | 0.432 |
| RRIRDRPPRLPRPRPRPVLKPRP | 0.0359 |
| RRIRCRPPRLPRPRPRPHFFPRP | -0.633 |
| RRIRMRPPRLPRPRPRPRINPRP | 0.19 |
| RRIRLRPPRLPRPRPRPLDTPRP | 0.0486 |
| RRIRMRPPRLPRPRPRPPRAPRP | 1.78 |
| RRIRSRPPRLPRPRPRPGRPPRP | 0.245 |
| RRIRPRPPRLPRPRPRPWPGPRP | 0.367 |
| RRIRVRPPRLPRPRPRPHQAPRP | 0.0697 |
| RRIRIRPPRLPRPRPRPFLYPRP | -0.84 |
| RRIRLRPPRLPRPRPRPDSDPRP | -0.0524 |
| RRIRERPPRLPRPRPRPDMRPRP | -3.48e-05 |
| RRIRLRPPRLPRPRPRPQILPRP | -0.172 |
| RRIRWRPPRLPRPRPRPSFHPRP | -0.458 |
| RRIRRRPPRLPRPRPRPGLYPRP | 0.305 |
| RRIRMRPPRLPRPRPRPITMPRP | 0.0833 |
| RRIRHRPPRLPRPRPRPRQRPRP | 0.162 |
| RRIRDRPPRLPRPRPRPRNHPRP | -0.641 |
| RRIRNRPPRLPRPRPRPFSHPRP | -0.015 |
| RRIRMRPPRLPRPRPRPLDAPRP | 1.74 |
| RRIRQRPPRLPRPRPRPSNNPRP | -0.729 |
| RRIRLRPPRLPRPRPRPHQAPRP | -0.216 |
| RRIRLRPPRLPRPRPRPFYMPRP | -0.0545 |

| Sequence | shrunken log2 fold change |
| --- | --- |
| RRIRQRPPRLPRPRPRPHTEPRP | 0.0633 |
| RRIRERPPRLPRPRPRPNVWPRP | 0.133 |
| RRIRGRPPRLPRPRPRPIIMPRP | -0.129 |
| RRIRFRPPRLPRPRPRPDFPPRP | -0.0311 |
| RRIRERPPRLPRPRPRPQYMPRP | -0.213 |
| RRIRARPPRLPRPRPRPTQGPRP | 0.905 |
| RRIRNRPPRLPRPRPRPAVLPRP | 0.00424 |
| RRIRVRPPRLPRPRPRPHIRPRP | -0.503 |
| RRIRTRPPRLPRPRPRPMQGPRP | 0.321 |
| RRIRQRPPRLPRPRPRPSRIPRP | -0.305 |
| RRIRLRPPRLPRPRPRPEMTPRP | 0.276 |
| RRIRNRPPRLPRPRPRPIPLPRP | 0.0142 |
| RRIRPRPPRLPRPRPRPWDTPRP | -0.743 |
| RRIRYRPPRLPRPRPRPCASPRP | -0.12 |
| RRIRWRPPRLPRPRPRPWKQPRP | 0.296 |
| RRIRFRPPRLPRPRPRPCSRPRP | -0.22 |
| RRIRNRPPRLPRPRPRPKCKPRP | -0.261 |
| RRIRGRPPRLPRPRPRPWCNPRP | -0.276 |
| RRIRHRPPRLPRPRPRPDLFPRP | -0.00544 |
| RRIRSRPPRLPRPRPRPFKAPRP | -0.0415 |
| RRIRNRPPRLPRPRPRPVIAPRP | -0.25 |
| RRIRYRPPRLPRPRPRPNSAPRP | -0.805 |
| RRIRSRPPRLPRPRPRPLHMPRP | 0.0919 |
| RRIRPRPPRLPRPRPRPWTRPRP | 0.0201 |
| RRIRRRPPRLPRPRPRPVEAPRP | 0.118 |

| Sequence | shrunken log2 fold change |
| --- | --- |
| RRIRPRPPRLPRPRPRPMDGPRP | 0.214 |
| RRIRTRPPRLPRPRPRPYKRPRP | -0.29 |
| RRIRLRPPRLPRPRPRPAEVPRP | -0.193 |
| RRIRKRPPRLPRPRPRPEWMPRP | -0.0537 |
| RRIRKRPPRLPRPRPRPMRWPRP | 1.41 |
| RRIRNRPPRLPRPRPRPCVVPRP | -0.0224 |
| RRIRCRPPRLPRPRPRPQGQPRP | 0.155 |
| RRIRRRPPRLPRPRPRPTEQPRP | -0.0468 |
| RRIRLRPPRLPRPRPRPETNPRP | 0.467 |
| RRIRYRPPRLPRPRPRPARCPRP | 0.0957 |
| RRIRTRPPRLPRPRPRPDRHPRP | -0.143 |
| RRIRIRPPRLPRPRPRPKILPRP | -0.0568 |
| RRIRHRPPRLPRPRPRPQYWPRP | -0.806 |
| RRIRGRPPRLPRPRPRPNMRPRP | 1.08 |
| RRIRLRPPRLPRPRPRPPQIPRP | 0.0736 |
| RRIRWRPPRLPRPRPRPLRRPRP | 0.587 |
| RRIRLRPPRLPRPRPRPTTHPRP | -0.102 |
| RRIRVRPPRLPRPRPRPIQLPRP | -0.174 |
| RRIRGRPPRLPRPRPRPFREPRP | -0.21 |
| RRIRMRPPRLPRPRPRPRVCPRP | 0.545 |
| RRIRPRPPRLPRPRPRPYAAPRP | 0.0621 |
| RRIRIRPPRLPRPRPRPRPYPRP | -0.332 |
| RRIRLRPPRLPRPRPRPYSQPRP | -0.0787 |
| RRIRKRPPRLPRPRPRPCWIPRP | -0.0557 |
| RRIRDRPPRLPRPRPRPFAEPRP | 0.242 |
